For this assay, the target named is T1, Slh1 (from SLH1-FTP, released by TEV protease) as imaged by HS-AFM (S. cerevisiae, UniProt P53327 1-1967).
T1 construct: Slh1 (RQT2), S. cerevisiae; The methods describe this purification for the wild-type and the double-mutant trimer; not shown: protein A (behind a TEV site), C-terminal, cleaved
In words: HS-AFM; purified complex (5 nM) on mica in RQT-AFM buffer (50 mM Tris pH 7.5, 100 mM NaCl, 10 mM MgCl2, 100 mM L-arginine, 10 µM ZnCl2), room temperature. To be noted: both partners purified.

T1 sequence (P53327 whole entry): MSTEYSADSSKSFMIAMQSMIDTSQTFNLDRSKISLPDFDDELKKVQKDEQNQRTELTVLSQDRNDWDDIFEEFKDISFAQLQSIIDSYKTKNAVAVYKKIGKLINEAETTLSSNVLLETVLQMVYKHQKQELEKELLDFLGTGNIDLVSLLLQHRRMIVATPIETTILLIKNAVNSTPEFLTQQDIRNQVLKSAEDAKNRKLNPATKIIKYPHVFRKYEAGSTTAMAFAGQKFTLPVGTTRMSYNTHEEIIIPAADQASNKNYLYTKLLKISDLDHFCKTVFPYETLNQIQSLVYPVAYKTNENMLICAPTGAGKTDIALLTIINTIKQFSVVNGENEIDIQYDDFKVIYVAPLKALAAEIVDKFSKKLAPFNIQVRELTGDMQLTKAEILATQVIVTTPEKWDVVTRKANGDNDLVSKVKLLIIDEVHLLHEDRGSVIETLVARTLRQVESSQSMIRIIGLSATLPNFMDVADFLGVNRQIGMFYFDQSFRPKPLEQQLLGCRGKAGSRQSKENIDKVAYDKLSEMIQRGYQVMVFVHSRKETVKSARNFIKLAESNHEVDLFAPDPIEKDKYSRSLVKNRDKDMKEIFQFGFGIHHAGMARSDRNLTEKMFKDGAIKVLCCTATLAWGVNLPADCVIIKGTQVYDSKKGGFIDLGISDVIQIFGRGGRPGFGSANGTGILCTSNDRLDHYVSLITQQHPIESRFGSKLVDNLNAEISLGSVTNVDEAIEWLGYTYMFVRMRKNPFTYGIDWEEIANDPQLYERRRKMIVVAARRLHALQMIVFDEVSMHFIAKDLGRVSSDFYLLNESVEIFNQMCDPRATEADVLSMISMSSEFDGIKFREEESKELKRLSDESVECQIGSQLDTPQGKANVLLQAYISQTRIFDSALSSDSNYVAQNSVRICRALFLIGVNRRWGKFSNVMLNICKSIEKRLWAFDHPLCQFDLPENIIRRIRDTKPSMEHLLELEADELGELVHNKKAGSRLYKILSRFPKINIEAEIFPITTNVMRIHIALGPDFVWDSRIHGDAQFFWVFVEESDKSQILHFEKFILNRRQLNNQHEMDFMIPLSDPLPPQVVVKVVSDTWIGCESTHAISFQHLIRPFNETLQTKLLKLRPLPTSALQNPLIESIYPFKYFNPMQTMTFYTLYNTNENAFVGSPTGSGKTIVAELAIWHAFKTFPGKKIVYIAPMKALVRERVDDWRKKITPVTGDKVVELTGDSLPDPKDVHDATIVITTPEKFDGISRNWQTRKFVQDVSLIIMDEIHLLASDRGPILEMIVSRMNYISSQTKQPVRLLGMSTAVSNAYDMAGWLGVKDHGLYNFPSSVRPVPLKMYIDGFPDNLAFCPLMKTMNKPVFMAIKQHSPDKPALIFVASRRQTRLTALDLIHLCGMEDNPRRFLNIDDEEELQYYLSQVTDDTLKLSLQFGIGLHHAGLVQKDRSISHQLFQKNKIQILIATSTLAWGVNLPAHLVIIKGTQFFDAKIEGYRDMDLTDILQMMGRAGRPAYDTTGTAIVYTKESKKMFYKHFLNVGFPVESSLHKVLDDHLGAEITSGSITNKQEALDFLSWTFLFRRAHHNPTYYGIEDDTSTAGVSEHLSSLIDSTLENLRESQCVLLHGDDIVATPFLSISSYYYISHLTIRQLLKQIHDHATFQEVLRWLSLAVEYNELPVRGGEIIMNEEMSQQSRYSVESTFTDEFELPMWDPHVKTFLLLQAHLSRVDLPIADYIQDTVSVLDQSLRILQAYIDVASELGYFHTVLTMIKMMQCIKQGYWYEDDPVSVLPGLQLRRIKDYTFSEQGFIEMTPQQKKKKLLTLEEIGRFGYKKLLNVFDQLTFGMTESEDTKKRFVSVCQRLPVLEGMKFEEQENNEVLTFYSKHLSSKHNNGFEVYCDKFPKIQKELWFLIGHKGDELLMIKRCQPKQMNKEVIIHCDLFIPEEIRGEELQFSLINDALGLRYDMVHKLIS

B1: Cue3 as imaged by HS-AFM in the Slh1/Cue3 complex (natural protein, S. cerevisiae, UniProt P53137 1-624, looked up)
chain: MLSRYNRVIEINGGNADISLPIVKFPPFKLRAQLIEKDPVVWLHLIETYVTYFEYLMQGANVELLDESTLDHLRLFLRTYLHEIADEEGKLLSLGINHDVSEQLYLLKGWIFSLIKKCGLLHLQIFGDSLWNLIKVYVRRNPDSIRGLIDGSLKPRINTQRVQLDKSYQVQQHLKQLIESGKFKRIDLRCVEDLLSAKSMQPNKFAENFFTANWIEILEALWAKGQGRGHKEARELIIISLFSVSADRLLKITKELGISNFETLALYPLLGTMLINEGVHKRLPDLKSKLLFLNLGGLSMDEGDHMSYPTSSGTEVNEEQLSALMELFPQFSKYQLSQTLLAYDNNIELVTNKIFEDPTIIEAFSREPAEEEVEPVSDGDNASFTEELSILDRGDSSKNKELDKKIISEGVPDELRNKTLTRALKLLYEADEDERDDTYDEADVNRSDPSKRIGLQEDEESYDTKDDSNEVRQDHNYHIVEAYLWNLLKEDPKLFERSKRGTKVRKTMKEMTSWSDEKIEGWCRMLERSPTRARLLEKKFMFKGNSKTGKTSYVHNRDSQNDGNVVKEQAKQKKSENIKKHEPQSTEQKKRQHAKNEKRKGARANHNRKKGHDKKLARAGNNAI
notes: Cue3 (RQT3), S. cerevisiae
Regarding B1, the binding result was “binds”.

B2: Rqt4 as imaged by HS-AFM in the Slh1/Rqt4 complex (natural protein, S. cerevisiae, UniProt P36119 1-530, looked up)
chain: MTRKQAIDYAIKQVPQILPLEESDVKALCEQVLSTSSDDPEQIASKFLEFLGHEDLSFEFVMKFNELLNQNDKKEEKKTKNVHLEHTAPTSWKNESKQPTNNYINKKGDEKPKKLKDEKKSSTTRPTVQPSNQSTQSNPIKEKKEHRSKGKLQSLQEIDEAIKMLELRDSGSSKNCNCQGTRHPVFDIAPNCLHCGKVVCVIEGLNKGKCGHCHEQLISDNERTQMVEILNQEKNELNGSSSSLSNASNGANVPKKKTKTYKITSGMGKNLFAEQDKLFDFIERKRERERKRNEVLKLQEEKEESEAKERQASEHDHKAEENPELLAAQERLDRLLYFQDTSAERTKIIDNASDFDMNQEVGLWGSARERALALKKQQRNLRKWEKVEKERNGRREKYVVSMNIGSNGKVTMTEVPKDTENVIAGSDDDISDISDEEDISDLKHIHALKSEINTTKSLENLHLQSKAWDYERDKKQFDRPTYVKKNSDTAQQNRKTEEKAHDMQAYDLKSRVQVDQNADASVEQNILAVL
notes: Rqt4, S. cerevisiae
For the molecule B2, the binding result is “binds”.

These data come from PMC9831982 (Nature Communications, 2023).
